The record followed here is PMC7367873, “Dissecting the sequence determinants for dephosphorylation by the catalytic subunits of phosphatases PP1 and PP2A” (Nature Communications, 2020).

Assay [1] relates to GFP-14-3-3β and its binding proteins. Nature of the assay: GFP-14-3-3β co-IP with LC-MS/MS label-free quantification, untreated versus PP1c-treated. Details: species or system human.
Another assay relates to GFP-14-3-3β. Nature of the assay: GFP-14-3-3β co-IP with LC-MS/MS, untreated GFP-14-3-3β versus GFP control (14-3-3 interactome). The format is binding, human.
The mark [2] stands for this setting: pairwise comparison PP1 vs untreated, student's t-test, 3 replicates each, LC-MS/MS label-free quantification.
Setting [3] is: pairwise comparison untreated GFP-14-3-3β vs GFP, student's t-test, 3 replicates each, LC-MS/MS label-free quantification.
Setting [4] is: PP1 vs untreated, LFQ intensities, replicates 1-3.
[5] abbreviates: untreated vs GFP, LFQ intensities, replicates 1-3.

B1: SORBS2 (protein, UniProt O94875 1-1100, looked up)
Sorbin and SH3 …: MSYYQRPFSPSAYSLPASLNSSIVMQHGTSLDSTDTYPQHAQSLDGTTSSSIPLYRSSEEEKRVTVIKAPHYPGIGPVDESGIPTAIRTTVDRPKDWYKTMFKQIHMVHKPDDDTDMYNTPYTYNAGLYNPPYSAQSHPAAKTQTYRPLSKSHSDNSPNAFKDASSPVPPPHVPPPVPPLRPRDRSSTEKHDWDPPDRKVDTRKFRSEPRSIFEYEPGKSSILQHERPASLYQSSIDRSLERPMSSASMASDFRKRRKSEPAVGPPRGLGDQSASRTSPGRVDLPGSSTTLTKSFTSSSPSSPSRAKGGDDSKICPSLCSYSGLNGNPSSELDYCSTYRQHLDVPRDSPRAISFKNGWQMARQNAEIWSSTEETVSPKIKSRSCDDLLNDDCDSFPDPKVKSESMGSLLCEEDSKESCPMAWGSPYVPEVRSNGRSRIRHRSARNAPGFLKMYKKMHRINRKDLMNSEVICSVKSRILQYESEQQHKDLLRAWSQCSTEEVPRDMVPTRISEFEKLIQKSKSMPNLGDDMLSPVTLEPPQNGLCPKRRFSIEYLLEEENQSGPPARGRRGCQSNALVPIHIEVTSDEQPRAHVEFSDSDQDGVVSDHSDYIHLEGSSFCSESDFDHFSFTSSESFYGSSHHHHHHHHHHHRHLISSCKGRCPASYTRFTTMLKHERARHENTEEPRRQEMDPGLSKLAFLVSPVPFRRKKNSAPKKQTEKAKCKASVFEALDSALKDICDQIKAEKKRGSLPDNSILHRLISELLPDVPERNSSLRALRRSPLHQPLHPLPPDGAIHCPPYQNDCGRMPRSASFQDVDTANSSCHHQDRGGALQDRESPRSYSSTLTDMGRSAPRERRGTPEKEKLPAKAVYDFKAQTSKELSFKKGDTVYILRKIDQNWYEGEHHGRVGIFPISYVEKLTPPEKAQPARPPPPAQPGEIGEAIAKYNFNADTNVELSLRKGDRVILLKRVDQNWYEGKIPGTNRQGIFPVSYVEVVKKNTKGAEDYPDPPIPHSYSSDRIHSLSSNKPQRPVFTHENIQGGGEPFQALYNYTPRNEDELELRESDVIDVMEKCDDGWFVGTSRRTKFFGTFPGNYVKRL
As for B1, the “Difference (log2), PP1 vs untreated” value in assay [1] (setting [2]) is -2.05 log2. The “Difference (log2), untreated vs GFP” value in the assay with GFP-14-3-3β (setting [3]) is reported as 3.7091 log2.

B2: ZYX (protein, UniProt Q15942 2-572, looked up)
Zyxin: AAPRPSPAISVSVSAPAFYAPQKKFGPVVAPKPKVNPFRPGDSEPPPAPGAQRAQMGRVGEIPPPPPEDFPLPPPPLAGDGDDAEGALGGAFPPPPPPIEESFPPAPLEEEIFPSPPPPPEEEGGPEAPIPPPPQPREKVSSIDLEIDSLSSLLDDMTKNDPFKARVSSGYVPPPVATPFSSKSSTKPAAGGTAPLPPWKSPSSSQPLPQVPAPAQSQTQFHVQPQPQPKPQVQLHVQSQTQPVSLANTQPRGPPASSPAPAPKFSPVTPKFTPVASKFSPGAPGGSGSQPNQKLGHPEALSAGTGSPQPPSFTYAQQREKPRVQEKQHPVPPPAQNQNQVRSPGAPGPLTLKEVEELEQLTQQLMQDMEHPQRQNVAVNELCGRCHQPLARAQPAVRALGQLFHIACFTCHQCAQQLQGQQFYSLEGAPYCEGCYTDTLEKCNTCGEPITDRMLRATGKAYHPHCFTCVVCARPLEGTSFIVDQANRPHCVPDYHKQYAPRCSVCSEPIMPEPGRDETVRVVALDKNFHMKCYKCEDCGKPLSIEADDNGCFPLDGHVLCRKCHTARAQT
Consider B2, for which the “Difference (log2), PP1 vs untreated” value in assay [1] (setting [4]) is on record as -2.012 log2. Also, the “Difference (log2), untreated vs GFP” value in the assay on GFP-14-3-3β (setting [5]) was -0.162 log2.

B3: CYFIP1 (protein, UniProt Q7L576 1-1253, looked up)
Cytoplasmic FMR1-interacting …: MAAQVTLEDALSNVDLLEELPLPDQQPCIEPPPSSLLYQPNFNTNFEDRNAFVTGIARYIEQATVHSSMNEMLEEGQEYAVMLYTWRSCSRAIPQVKCNEQPNRVEIYEKTVEVLEPEVTKLMNFMYFQRNAIERFCGEVRRLCHAERRKDFVSEAYLITLGKFINMFAVLDELKNMKCSVKNDHSAYKRAAQFLRKMADPQSIQESQNLSMFLANHNKITQSLQQQLEVISGYEELLADIVNLCVDYYENRMYLTPSEKHMLLKVMGFGLYLMDGSVSNIYKLDAKKRINLSKIDKYFKQLQVVPLFGDMQIELARYIKTSAHYEENKSRWTCTSSGSSPQYNICEQMIQIREDHMRFISELARYSNSEVVTGSGRQEAQKTDAEYRKLFDLALQGLQLLSQWSAHVMEVYSWKLVHPTDKYSNKDCPDSAEEYERATRYNYTSEEKFALVEVIAMIKGLQVLMGRMESVFNHAIRHTVYAALQDFSQVTLREPLRQAIKKKKNVIQSVLQAIRKTVCDWETGHEPFNDPALRGEKDPKSGFDIKVPRRAVGPSSTQLYMVRTMLESLIADKSGSKKTLRSSLEGPTILDIEKFHRESFFYTHLINFSETLQQCCDLSQLWFREFFLELTMGRRIQFPIEMSMPWILTDHILETKEASMMEYVLYSLDLYNDSAHYALTRFNKQFLYDEIEAEVNLCFDQFVYKLADQIFAYYKVMAGSLLLDKRLRSECKNQGATIHLPPSNRYETLLKQRHVQLLGRSIDLNRLITQRVSAAMYKSLELAIGRFESEDLTSIVELDGLLEINRMTHKLLSRYLTLDGFDAMFREANHNVSAPYGRITLHVFWELNYDFLPNYCYNGSTNRFVRTVLPFSQEFQRDKQPNAQPQYLHGSKALNLAYSSIYGSYRNFVGPPHFQVICRLLGYQGIAVVMEELLKVVKSLLQGTILQYVKTLMEVMPKICRLPRHEYGSPGILEFFHHQLKDIVEYAELKTVCFQNLREVGNAILFCLLIEQSLSLEEVCDLLHAAPFQNILPRVHVKEGERLDAKMKRLESKYAPLHLVPLIERLGTPQQIAIAREGDLLTKERLCCGLSMFEVILTRIRSFLDDPIWRGPLPSNGVMHVDECVEFHRLWSAMQFVYCIPVGTHEFTVEQCFGDGLHWAGCMIIVLLGQQRRFAVLDFCYHLLKVQKHDGKDEIIKNVPLKKMVERIRKFQILNDEIITILDKYLKSGDGEGTPVEHVRCFQPPIHQSLASS
In the case of B3, the “Difference (log2), PP1 vs untreated” value in assay [1] (setting [2]) is -2.17 log2. The “Difference (log2), untreated vs GFP” value with GFP-14-3-3β (setting [3]) came to 3.924 log2.

B4: SND1 (protein, UniProt Q7KZF4 2-910, looked up)
Staphylococcal nuclease …: ASSAQSGGSSGGPAVPTVQRGIIKMVLSGCAIIVRGQPRGGPPPERQINLSNIRAGNLARRAAATQPDAKDTPDEPWAFPAREFLRKKLIGKEVCFTIENKTPQGREYGMIYLGKDTNGENIAESLVAEGLATRREGMRANNPEQNRLSECEEQAKAAKKGMWSEGNGSHTIRDLKYTIENPRHFVDSHHQKPVNAIIEHVRDGSVVRALLLPDYYLVTVMLSGIKCPTFRREADGSETPEPFAAEAKFFTESRLLQRDVQIILESCHNQNILGTILHPNGNITELLLKEGFARCVDWSIAVYTRGAEKLRAAERFAKERRLRIWRDYVAPTANLDQKDKQFVAKVMQVLNADAIVVKLNSGDYKTIHLSSIRPPRLEGENTQDKNKKLRPLYDIPYMFEAREFLRKKLIGKKVNVTVDYIRPASPATETVPAFSERTCATVTIGGINIAEALVSKGLATVIRYRQDDDQRSSHYDELLAAEARAIKNGKGLHSKKEVPIHRVADISGDTQKAKQFLPFLQRAGRSEAVVEYVFSGSRLKLYLPKETCLITFLLAGIECPRGARNLPGLVQEGEPFSEEATLFTKELVLQREVEVEVESMDKAGNFIGWLHIDGANLSVLLVEHALSKVHFTAERSSYYKSLLSAEEAAKQKKEKVWAHYEEQPVEEVMPVLEEKERSASYKPVFVTEITDDLHFYVQDVETGTQLEKLMENMRNDIASHPPVEGSYAPRRGEFCIAKFVDGEWYRARVEKVESPAKIHVFYIDYGNREVLPSTRLGTLSPAFSTRVLPAQATEYAFAFIQVPQDDDARTDAVDSVVRDIQNTQCLLNVEHLSAGCPHVTLQFADSKGDVGLGLVKEGLVMVEVRKEKQFQKVITEYLNAQESAKSARLNLWRYGDFRADDADEFGYSR
On to B4, for which the “Difference (log2), PP1 vs untreated” value in assay [1] (log2 difference, pairwise comparison PP1 vs untreated, label-free quantification, 3 replicates each) was 1.5668. The “Difference (log2), untreated vs GFP” value in the assay with GFP-14-3-3β (log2 difference, pairwise comparison untreated vs GFP, label-free quantification, 3 replicates each) is recorded as -0.5008.

B5: MPRIP (protein, UniProt Q6WCQ1 2-1025, looked up)
Myosin phosphatase …: SAAKENPCRKFQANIFNKSKCQNCFKPRESHLLNDEDLTQAKPIYGGWLLLAPDGTDFDNPVHRSRKWQRRFFILYEHGLLRYALDEMPTTLPQGTINMNQCTDVVDGEGRTGQKFSLCILTPEKEHFIRAETKEIVSGWLEMLMVYPRTNKQNQKKKRKVEPPTPQEPGPAKVAVTSSSSSSSSSSSIPSAEKVPTTKSTLWQEEMRTKDQPDGSSLSPAQSPSQSQPPAASSLREPGLESKEEESAMSSDRMDCGRKVRVESGYFSLEKTKQDLKAEEQQLPPPLSPPSPSTPNHRRSQVIEKFEALDIEKAEHMETNAVGPSPSSDTRQGRSEKRAFPRKRDFTNEAPPAPLPDASASPLSPHRRAKSLDRRSTEPSVTPDLLNFKKGWLTKQYEDGQWKKHWFVLADQSLRYYRDSVAEEAADLDGEIDLSACYDVTEYPVQRNYGFQIHTKEGEFTLSAMTSGIRRNWIQTIMKHVHPTTAPDVTSSLPEEKNKSSCSFETCPRPTEKQEAELGEPDPEQKRSRARERRREGRSKTFDWAEFRPIQQALAQERVGGVGPADTHEPLRPEAEPGELERERARRREERRKRFGMLDATDGPGTEDAALRMEVDRSPGLPMSDLKTHNVHVEIEQRWHQVETTPLREEKQVPIAPVHLSSEDGGDRLSTHELTSLLEKELEQSQKEASDLLEQNRLLQDQLRVALGREQSAREGYVLQATCERGFAAMEETHQKKIEDLQRQHQRELEKLREEKDRLLAEETAATISAIEAMKNAHREEMERELEKSQRSQISSVNSDVEALRRQYLEELQSVQRELEVLSEQYSQKCLENAHLAQALEAERQALRQCQRENQELNAHNQELNNRLAAEITRLRTLLTGDGGGEATGSPLAQGKDAYELEVLLRVKESEIQYLKQEISSLKDELQTALRDKKYASDKYKDIYTELSIAKAKADCDISRLKEQLKAATEALGEKSPDSATVSGYDIMKSKSNPDFLKKDRSCVTRQLRNIRSKSVIEQVSWDT
Take B5: the “Difference (log2), PP1 vs untreated” value in assay [1] (setting [4]) is given as -1.951 log2. Also, in the assay on GFP-14-3-3β (setting [5]), the “Difference (log2), untreated vs GFP” value was 1.085 log2.

B6: BAIAP2 (protein, UniProt Q9UQB8 1-552, looked up)
BAR/IMD domain-containing …: MSLSRSEEMHRLTENVYKTIMEQFNPSLRNFIAMGKNYEKALAGVTYAAKGYFDALVKMGELASESQGSKELGDVLFQMAEVHRQIQNQLEEMLKSFHNELLTQLEQKVELDSRYLSAALKKYQTEQRSKGDALDKCQAELKKLRKKSQGSKNPQKYSDKELQYIDAISNKQGELENYVSDGYKTALTEERRRFCFLVEKQCAVAKNSAAYHSKGKELLAQKLPLWQQACADPSKIPERAVQLMQQVASNGATLPSALSASKSNLVISDPIPGAKPLPVPPELAPFVGRMSAQESTPIMNGVTGPDGEDYSPWADRKAAQPKSLSPPQSQSKLSDSYSNTLPVRKSVTPKNSYATTENKTLPRSSSMAAGLERNGRMRVKAIFSHAAGDNSTLLSFKEGDLITLLVPEARDGWHYGESEKTKMRGWFPFSYTRVLDSDGSDRLHMSLQQGKSSSTGNLLDKDDLAIPPPDYGAASRAFPAQTASGFKQRPYSVAVPAFSQGLDDYGARSMSRNPFAHVQLKPTVTNDRCDLSAQGPEGREHGDGSARTLAGR
Regarding B6, in assay [1] (setting [4]), the “Difference (log2), PP1 vs untreated” value is given as -1.977 log2. Besides, in the assay on GFP-14-3-3β (setting [5]), the “Difference (log2), untreated vs GFP” value is recorded as 2.991 log2.
